The numbers were not newly measured in patent US20080213253A1, “COMBINATION THERAPY FOR THE TREATMENT OF CANCER” (DYAX CORP., priority 2007, published 2008), which cites them from elsewhere.

Data set [1] has as its target Tie complex (Tie1 and Tie2) (Homo sapiens, UniProt P35590). The note with it: statement in words, no data shown.
Another data set addresses Tie1 (Homo sapiens, UniProt P35590). The note with it: statement in words, no data shown.

Tie1, sequence (P35590 22-1138): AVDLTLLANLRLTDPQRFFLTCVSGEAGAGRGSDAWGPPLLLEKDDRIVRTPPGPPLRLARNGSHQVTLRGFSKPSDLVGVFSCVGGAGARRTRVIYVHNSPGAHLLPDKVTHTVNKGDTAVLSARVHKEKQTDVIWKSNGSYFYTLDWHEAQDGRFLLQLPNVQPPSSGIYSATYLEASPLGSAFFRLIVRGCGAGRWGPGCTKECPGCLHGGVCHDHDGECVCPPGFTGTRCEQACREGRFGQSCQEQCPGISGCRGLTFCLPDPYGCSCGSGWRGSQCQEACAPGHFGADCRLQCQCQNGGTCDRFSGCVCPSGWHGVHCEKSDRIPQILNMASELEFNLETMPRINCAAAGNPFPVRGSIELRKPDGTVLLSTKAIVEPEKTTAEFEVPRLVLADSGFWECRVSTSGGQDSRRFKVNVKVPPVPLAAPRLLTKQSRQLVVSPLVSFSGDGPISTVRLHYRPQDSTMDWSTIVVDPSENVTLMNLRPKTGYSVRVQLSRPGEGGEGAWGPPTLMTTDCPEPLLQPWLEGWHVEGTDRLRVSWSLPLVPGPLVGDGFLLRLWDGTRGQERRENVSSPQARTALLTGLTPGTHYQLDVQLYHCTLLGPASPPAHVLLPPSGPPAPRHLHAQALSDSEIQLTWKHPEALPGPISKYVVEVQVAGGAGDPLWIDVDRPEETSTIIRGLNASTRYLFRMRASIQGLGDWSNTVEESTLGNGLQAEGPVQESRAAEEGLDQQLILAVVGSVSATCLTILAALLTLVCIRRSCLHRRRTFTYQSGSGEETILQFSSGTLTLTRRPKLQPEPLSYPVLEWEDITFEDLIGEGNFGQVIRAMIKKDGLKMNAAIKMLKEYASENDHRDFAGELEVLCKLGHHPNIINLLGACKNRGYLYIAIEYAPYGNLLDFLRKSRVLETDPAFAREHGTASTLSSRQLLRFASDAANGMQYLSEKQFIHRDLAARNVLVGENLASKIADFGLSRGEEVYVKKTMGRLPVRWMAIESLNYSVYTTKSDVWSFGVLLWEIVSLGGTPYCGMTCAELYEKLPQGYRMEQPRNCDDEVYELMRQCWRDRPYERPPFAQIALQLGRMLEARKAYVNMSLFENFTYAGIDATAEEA
Tie complex (Tie1 and Tie2), sequence (P35590 22-1138, one chain of several): as the sequence (P35590 22-1138) above

B1: M0044-B08: Tie1 ectodomain-binding antibody; variable domains SEQ ID NO:1 and 3 (antibody, V domains shown)
VL: QDIQMTQSPSFLSASVGDRVTISCRASQYISIYLNWYQQRPGEAPKLLINAASSLQSGDPSRFSGSGSGTDFTLTINSLQPDDFATYYCQQYKSYPLTFGEGTKVEIK
VH: EVQLLESGGGLVQPGGSLRLSCAASGFTFSAYGMGWVRQAPGKGLEWVSVISPSGGQTSYADSVKGRFTISRDNSKNTLYLQMNSLRAEDTALYYCAGGDRYGPLHYWGQGTLVTVSS
Take B1: the Tie complex formation entry in data set [1] was “induce Tie complex formation”. Also, the “down modulation of Tie1 from the cell surface” value with Tie1 is on record as “down modulation of Tie1 from the cell surface”.
